# Paper PMC6642148
# Molecular target: RAS-binding domain (RBD) of RAF1, RAF1-RBD (52–131) (Homo sapiens) (UniProt P04049)
# Experiment: ITC; GMPPNP-bound KRAS
# Settings: domain or fragment
substance,measurement,value
"KRAS (2–169), GMPPNP-bound (from UniProt P01116-2 2-169)",Kd,217 nM
